What was measured:
[1] = system: SLPI present in human saliva
Sequence of SLPI present in human saliva (chain, as listed by the source): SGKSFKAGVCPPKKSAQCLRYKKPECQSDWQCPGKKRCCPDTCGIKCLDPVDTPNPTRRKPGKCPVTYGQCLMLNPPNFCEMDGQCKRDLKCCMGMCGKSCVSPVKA

Sequence of tryptase (chain, as listed by the source): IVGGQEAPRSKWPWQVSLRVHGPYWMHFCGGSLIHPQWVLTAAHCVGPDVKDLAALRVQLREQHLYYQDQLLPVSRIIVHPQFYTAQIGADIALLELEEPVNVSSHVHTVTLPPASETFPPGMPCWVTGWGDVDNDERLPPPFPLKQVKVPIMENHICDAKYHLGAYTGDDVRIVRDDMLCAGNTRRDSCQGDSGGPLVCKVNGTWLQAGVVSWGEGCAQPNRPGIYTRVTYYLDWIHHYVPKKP

Substance: tryptase
- cleavage of SLPI in human saliva, Western analysis [1]: The larger SLPI cleavage product was not observed when the saliva samples were incubated with cathepsin G, tryptase and proteinase 3
- cleavage of rSLPI, LC/MS (1 ug rSLPI, 50 ng protease, 5 hours) (recombinant human SLPI): did not result in the formation of the second peak
- cleavage of the reduced form of rSLPI (recombinant human SLPI): Reduction of the rSLPI samples in the presence of the proteases did result in cleavage of the SLPI protein

From patent US20070166779
